Assay results published in paper PMC8234171.

Assays:
[1] = molecular target: human mitochondrial complex I (NADH-coenzyme Q oxidoreductase) (human (endogenous in T-REx-293 shRNA-C3))
[2] = molecular target: human mitochondrial complex I (NADH-coenzyme Q oxidoreductase) (human (endogenous in T-REx-293 shRNA-C3)); test: native gel or EMSA; high-resolution clear native gel electrophoresis (HrCNE, 6.5% gel, 4 °C) of DDM-solubilised mitochondria of shRNA-C3 cells treated with 0.03 mg/mL TAT-NDUFS8 for 0-48 h; immunoblot with anti-NDUFS8 at the complex I location; intensity normalised to complex V (ATPase α subunit)

TAT-NDUFS8 fusion protein (from UniProt O00217 35-210)
complex I in-gel activity (NADH/NBT staining after HrCNE) of shRNA-C3 cells treated with 0.03 mg/mL TAT-NDUFS8 for 48 h; untreated shRNA-C3 cells about 83.6% of the wild type (% of the wild-type activity) [1]: 109 | intensity of NDUFS8 at the complex I location after 48 h of treatment [2]: 105%
